In one data set the target is T1, MBD2 (residues 145–411) (UniProt Q9UBB5 145-411).
T1 construct: also called untagged MBD2; source: HEK293F, co-transfected, in lysate; co-purified (FLAG resin, TEV protease, Superose 6)
Put plainly: co-IP; HEK293F cells co-transfected with His10-Flag3-MTA1 construct, HDAC1 and MBD2; clarified lysate on FLAG resin 30 min, washes in 50 mM Tris-HCl pH 7.5, 100 mM potassium acetate, 5% glycerol, RNase A, elution with TEV protease; SDS-PAGE; DNA ratios 1:1:1 and 1:1:4. The following applies: partners not purified.

Data set [1] concerns the target T2, HDAC1 (residues 1–482) (UniProt Q13547 1-482).
T2 construct: Two copies stand in the HDAC1:MTA1 dimer complex; also called histone deacetylase 1; source: HEK293F, co-transfected, in lysate; co-purified (FLAG resin, TEV protease, Superose 6)
Described as above. As to conditions: partners not purified.

Data set [2] deals with the molecule itself. As to the kind of experiment: SEC; FLAG-purified, TEV-eluted co-expressed complex run on a Superose 6 column; fractions on SDS-PAGE. (In general: Size exclusion chromatography separates by hydrodynamic size, large species first.)
The target in data set [3] is T2, HDAC1 (residues 1–482). As to the kind of experiment: cryo-EM structure; co-expressed complexes purified by gel filtration, on graphene oxide grids; maps of 6.1, 4.5 and 19 Å with known structures docked as rigid bodies. The following applies: both partners purified.
Data set [4] deals with the molecule itself. The description is as above.
For data set [5], the target named is T3, Strep-MBD2 (residues 114–411) (UniProt Q9UBB5 114-411).
T3 construct: MBD2, residues 114–411; source: HEK293F, co-transfected, in lysate; co-purified (FLAG resin, TEV protease, Superose 6)
T3 sequence (Q9UBB5 114-411): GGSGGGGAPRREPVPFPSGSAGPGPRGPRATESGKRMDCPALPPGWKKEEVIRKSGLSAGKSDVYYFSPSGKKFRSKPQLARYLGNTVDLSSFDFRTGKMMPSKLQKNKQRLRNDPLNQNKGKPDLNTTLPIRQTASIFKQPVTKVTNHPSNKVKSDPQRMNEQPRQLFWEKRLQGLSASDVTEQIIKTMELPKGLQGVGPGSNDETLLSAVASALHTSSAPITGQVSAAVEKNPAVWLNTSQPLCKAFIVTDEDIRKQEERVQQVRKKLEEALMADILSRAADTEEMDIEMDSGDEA
As to the kind of experiment: co-IP; HEK293F cells co-transfected with His10-Flag3-MTA1 construct, HDAC1 and MBD2; clarified lysate on FLAG resin 30 min, washes in 50 mM Tris-HCl pH 7.5, 100 mM potassium acetate, 5% glycerol, RNase A, elution with TEV protease; SDS-PAGE; DNA ratios 1:1:1 and 1:1:4. The following applies: partners not purified.

Data set [6] deals with the molecule itself. As to the kind of experiment: SEC-MALS; peak fraction of the gel filtration-pure HDAC1:MTA1:MBD2 complex re-run on Superose 6 with refractive index and MALS detectors.

T2 sequence (Q13547 whole entry, the tested form may be a part): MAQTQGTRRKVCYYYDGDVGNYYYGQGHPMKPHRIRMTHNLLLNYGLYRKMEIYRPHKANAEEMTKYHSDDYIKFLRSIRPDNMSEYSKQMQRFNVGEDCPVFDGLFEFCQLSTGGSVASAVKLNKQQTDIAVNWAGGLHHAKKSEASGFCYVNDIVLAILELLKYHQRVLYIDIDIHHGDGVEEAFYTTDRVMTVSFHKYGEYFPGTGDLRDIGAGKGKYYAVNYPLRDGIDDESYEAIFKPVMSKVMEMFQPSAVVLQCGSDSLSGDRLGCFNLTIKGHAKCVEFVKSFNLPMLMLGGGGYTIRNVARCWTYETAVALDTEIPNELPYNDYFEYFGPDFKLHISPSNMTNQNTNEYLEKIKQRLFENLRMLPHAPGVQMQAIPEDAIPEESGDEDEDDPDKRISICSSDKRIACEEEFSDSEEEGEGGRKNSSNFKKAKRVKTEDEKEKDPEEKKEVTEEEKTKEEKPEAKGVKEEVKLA
T1 sequence (Q9UBB5 145-411): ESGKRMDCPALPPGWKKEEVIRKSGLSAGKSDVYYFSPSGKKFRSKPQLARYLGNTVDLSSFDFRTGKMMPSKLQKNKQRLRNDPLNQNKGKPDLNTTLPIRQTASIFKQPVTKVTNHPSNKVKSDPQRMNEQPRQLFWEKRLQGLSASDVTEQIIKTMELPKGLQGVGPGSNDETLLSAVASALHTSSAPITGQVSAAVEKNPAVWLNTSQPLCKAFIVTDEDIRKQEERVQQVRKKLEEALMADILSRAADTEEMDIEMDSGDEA

B1: MTA1-Δ12 (MTA1 162–354 with part of ELM2 helix 2 deleted) (domain or fragment, UniProt Q13330 162-354, looked up)
chain: ADKGEIRVGNRYQADITDLLKEGEEDGRDQSRLETQVWEAHNPLTDKQIDQFLVVARSVGTFARALDCSSAASRDITLFHAMDTLHKNIYDISKAISALVPQGGPVLCRDEMEEWSASEANLFEEALEKYGKDFTDIQQDFLPWKSLTSIIEYYYMWKTTDRYVQQKRLKAAEAESKLKQV
notes: Tag cleaved off by TEV protease before the gel filtration; Runs as a dimeric and a monomeric species on Superose 6; source: HEK293F, co-transfected, in lysate; co-purified (FLAG resin, TEV protease, Superose 6); not shown: His10-Flag3, N-terminal, kept
Consider B1, for which the binding result (in the data set with MBD2 (residues 145–411); with HDAC1 (residues 1–482) [1]; in data set [2]) was “binds” each time.

B2: MTA1 BAH-ELM2-SANT-ZnF (residues 1–453) (domain or fragment, UniProt Q13330 1-453, looked up)
chain: MAANMYRVGDYVYFENSSSNPYLIRRIEELNKTANGNVEAKVVCFYRRRDISSTLIALADKHATLSVCYKAGPGADNGEEGEIEEEMENPEMVDLPEKLKHQLRHRELFLSRQLESLPATHIRGKCSVTLLNETESLKSYLEREDFFFYSLVYDPQQKTLLADKGEIRVGNRYQADITDLLKEGEEDGRDQSRLETQVWEAHNPLTDKQIDQFLVVARSVGTFARALDCSSSVRQPSLHMSAAAASRDITLFHAMDTLHKNIYDISKAISALVPQGGPVLCRDEMEEWSASEANLFEEALEKYGKDFTDIQQDFLPWKSLTSIIEYYYMWKTTDRYVQQKRLKAAEAESKLKQVYIPNYNKPNPNQISVNNVKAGVVNGTGAPGQSPGAGRACESCYTTQSYQWYSWGPPNMQCRLCASCWTYWKKYGGLKMPTRLDGERPGPNRSNMSPHGL
notes: MTA1, BAH, ELM2, SANT and GATA zinc finger domains, residues 1–453; also called extended MTA1 construct; source: HEK293F, co-transfected; co-purified (FLAG resin, TEV protease, Superose 6); not shown: His10-Flag3, N-terminal, cleaved
As for B2, the binding result (in the data set with HDAC1 (residues 1–482) [3]; in data set [4]) was “binds” each time.

B3: MTA1 ELM2-SANT domain (residues 162–354) (domain or fragment, UniProt Q13330 162-354, looked up)
chain: ADKGEIRVGNRYQADITDLLKEGEEDGRDQSRLETQVWEAHNPLTDKQIDQFLVVARSVGTFARALDCSSSVRQPSLHMSAAAASRDITLFHAMDTLHKNIYDISKAISALVPQGGPVLCRDEMEEWSASEANLFEEALEKYGKDFTDIQQDFLPWKSLTSIIEYYYMWKTTDRYVQQKRLKAAEAESKLKQV
notes: The tag held the complex on the FLAG resin; it was cleaved off by TEV protease before gel filtration, SEC-MALS, the Strep-Tactin step and cryo-EM; also called MTA1 wildtype; source: HEK293F, co-transfected, in lysate; co-purified (FLAG resin, TEV protease, Superose 6); not shown: His10-Flag3, N-terminal, kept
Turning to B3, the binding result (in the data set with MBD2 (residues 145–411); in the data set with HDAC1 (residues 1–482) [1]; in data set [5]) was “binds” each time. For the same molecule, the “stoichiometry N” value in data set [6] is 2.

By stoichiometry N is commonly meant a count of units in the complex or per binding partner.

The values above are taken from paper PMC7736783 (Nucleic Acids Research, 2020).
